B1: library; numbered along this chain (parent)
chain: MAAAAAAAAEQQSSNGPVKKSMREKAVERRSVNKEHNSNFKAGYIPIDEDRLHKTGLRGRKGNLAICVIILLFILAVINLIITLVIWAVIRIGPNGCDSMEFHESGLLRFKQVSDMGVIHPLYKSTVGGRRNENLVITGNNQPIVFQQGTTKLSVENNKTSITSDIGMQFFDPRTQNILFSTDYETHEFHLPSGVKSLNVQKASTERITSNATSDLNIKVDGRAIVRGNEGVFIMGKTIEFHMGGNMELKAENSIILNGSVMVSTTRLPSSSSGDQLGSGDWVRYKLCMCADGTLFKVQVTSQNMGCQISDNPCGNTH

Variants of: B1
Assay: SGCB cell-surface expression functional score (HA stain, bin4 vs bin1, normalised to synonymous) (log10 ratio); higher = more cell-surface SGCB (functional)
Method in brief: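 Human beta-sarcoglycan, tagged with HA and fused to YFP, was built into codon-saturation libraries and delivered by lentivirus at MOI <0.1 into HEK293 cells that stably express alpha-, gamma- and delta-sarcoglycan. After 72 hours, YFP-positive cells were sorted and grown for 5–7 days, then stained on ice with Alexa Fluor 647 anti-HA, fixed, sorted into four 5% intensity bins and amplicon-sequenced. Each variant's functional score is the log ratio of its frequency in the highest bin to that in the lowest bin, taken as the median across codons and transductions. Transductions were done in duplicate, and synonymous variants were scaled per section to mean 0, SD 0.5.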

SGCB cell-surface expression functional score (log10): each site, then its substitutions
F241: Q -1.74; E 0.03; I 0.2; R -1.19; N -0.57; S -1.23; C 0.62; Y -0.82; H -2.08; D -0.57; P -0.89; M 0.82; T -0.91; G -0.98; K -1.17; V -0.37; W 1.2; A 0.14; L 0.35
K250: S 0.33; L 0.54; Y 1.05; P -0.39; G 0.55; E 0.06; D 0.83; N 0.48; I 1; H 0.87; T 0.83; A 0.91; Q 0.65; F 1.23; M 0.98; V 0.37; C 0.5; W 0.02; R 0.59
I239: R -1.04; D -1.13; Q -1.16; A 0.09; F -0.45; K -1.38; V 0.12; E 0; Y -1.52; L 0.49; M 0.83; T 0.15; H -0.15; G -0.41; S -1.1; P -1.08; N -1.44; C 0.46; W -0.02
N246: Q 0.45; G 0.45; W -0.217; L 0.49; R 0.2; H 0.84; D 0.51; V 0.39; I 0.32; S -0.19; C -0.02; Y 0.19; P 0.63; E -0.206; A 0.82; K -0.01; F -1.49; M 0.42; T 0.94
A251: C 0.59; F -0.98; D -0.84; E -1.22
G245: R 0.49; Q 0.99; F -0.16; C 0.61; M 1.44; A 0.6; D 0.77; N 0.59; E 1.16; W 0.92; I 0.57; S 0.78; L 0.83; H 0.52; V -0.07; T 0.57; P 0.4; Y 1.09; K 0.91
M243: A 0.83; V 0.49; P 0.21; W -0.253; I 0.18; E 0.01; D -0.38; N 1.08; T 0.83; C 0.71; L 0.43; F 1.18; S 0.81; K -0.64; Q 0.88; G 0.64; Y 0.13; H 0.52; R -0.97
H242: D 0.83; K 1.04; S 0.93; F 0.89; V 0.71; C 1; Y 0.47; A 0.4; I 0.92; P -0.67; T 0.66; L 0.7; G 0.87; E 0.36; R 0.39; Q 0.68; M 0.2; W 0.6; N 0.39
G236: N -1.82; S -0.08; H -1.67; V -1.25; Q 0.48; F -1.96; E -1.08; R -1.3; K -2; Y -1.44; I -1.64; W -2.11; D -0.43; T -0.62; C -1.64; L -1.75; P -1.06; A 0.11; M -2.18
E240: H 0.77; R 0.44; L 0.37; N 0.97; F 0.84; Y 0.83; M 1.09; P -0.9; D 0.58; S 0.98; V 0.99; A 0.93; T 1; I 0.23; W 0.422; K 0.46; Q 1; C 0.37; G 0.76
M247: T -0.51; G 0.38; N -0.35; H 0.26; S 0.26; W -1.52; P -1.08; I 0.34; A 0.65; F 1.03; L 0.8; Y 1.22; K -1.56; D -1.1; V 0.47; E -0.44; R -0.83; Q -0.04; C 0.91
T238: A 0.6; M 0.93; H 0.24; R 0.94; Q 0.63; L 0.67; N 0.67; F 0.86; W -0.07; P -0.64; D 0.72; Y -0.01; E 0.87; G 0.71; I 0.62; V 0.95; K 0.3; S 0.64; C 0.64
E248: L 0.48; V 0.52; R 0.67; I 0.78; N 0.44; W 0.116; M 0; C -0.97; D 0.58; K 0.73; F 0.95; Y 0.41; P 0.43; H 0.87; Q -0.13; G 0.62; A 0.29; S 0.4; T 0.54
M235: W 0.91; F 0.84; Q 0.65; H 0.69; A 0.36; P -0.94; K 0.78; Y 0.92; T 0.37; C 0.86; I 0.26; G 0.75; S 0.53; R 0.56; E 0; D -0.066; V 0.18; L 0.66; N 1.02
L249: Q -0.07; R -0.27; D -1.06; G 0.21; V 0.75; W 0.63; Y 0.23; C 0.2; F 0.71; A 0.55; S 0.16; H -1.14; M -0.1; T 0; N -0.2; E -0.69; K -1.29; P -0.41; I 0.85
F233: R 0.69; W 0.09; T 0.7; Q 0.77; V 0.18; S 0.62; Y 0.56
K237: A 0.85; H -0.04; S 0.2; M 0.8; I 0.24; P 0.32; D 0.73; N 0.32; Q -0.79; F 0.86; Y 0.48; L 0.6; W 0.453; T 0.58; E 0.47; V 0.29; G 0.05; R 0.73; C 0.61
G244: S 0.77; A 0.67; I -0.24; Y -0.22; E 0.47; M 1.17; V 0.12; D 0.99; Q 0.86; N 0.77; C 0.21; L 0.86; R 0.41; W 0.55; P 0.1; F 1; T 0.66; H 0.75; K 0.23
I234: K -1.32; T 0.09; Q -1.65; P -0.22; C 0.01; M 0.48; L 0.43; D -0.5; A -0.02; E -1.49; V 0.49; W 0.32; F 1.03; H -1.04; Y -0.62; G -1; N -1.67; S -0.92; R -1.51
